Biological target: HMGB1b (rat, UniProt P63159 95-163)
Assay: EMSA

Sequence of HMGB1b (P63159 95-163): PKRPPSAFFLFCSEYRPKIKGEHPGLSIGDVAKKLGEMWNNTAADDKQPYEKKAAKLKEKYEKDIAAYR

B1: J1 (structured_DNA)
DNA 1: CGCAATCCTGAGCACG
DNA 2: CGTGCTCACCGAATCG
DNA 3: GCATTCGGACTATGGC
DNA 4: GCCATAGTGGATTGCG
Does B1 bind?
Result: binds
